The text below walks through data of patent publication US20220332804A1 (CSL INNOVATION, published 2022).

As usually defined, the Kd is the equilibrium constant for the complex coming apart. Low values mean tighter binding, high ones weaker binding.

Common to all, as to assay: SPR, antibody captured, C2 as analyte;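 also: biacore at 37 °C, anti-C2 mAbs held by immobilised goat anti-human IgG, C2 alanine or serine mutants injected, double-referenced sensorgrams fitted to a 1:1 kinetic or steady-state model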
In general terms: SPR reads the build-up and loss of mass on a sensor chip optically.

The target of one experiment is T1, human C2 N268A (human, UniProt P06681 21-752).
T1 sequence: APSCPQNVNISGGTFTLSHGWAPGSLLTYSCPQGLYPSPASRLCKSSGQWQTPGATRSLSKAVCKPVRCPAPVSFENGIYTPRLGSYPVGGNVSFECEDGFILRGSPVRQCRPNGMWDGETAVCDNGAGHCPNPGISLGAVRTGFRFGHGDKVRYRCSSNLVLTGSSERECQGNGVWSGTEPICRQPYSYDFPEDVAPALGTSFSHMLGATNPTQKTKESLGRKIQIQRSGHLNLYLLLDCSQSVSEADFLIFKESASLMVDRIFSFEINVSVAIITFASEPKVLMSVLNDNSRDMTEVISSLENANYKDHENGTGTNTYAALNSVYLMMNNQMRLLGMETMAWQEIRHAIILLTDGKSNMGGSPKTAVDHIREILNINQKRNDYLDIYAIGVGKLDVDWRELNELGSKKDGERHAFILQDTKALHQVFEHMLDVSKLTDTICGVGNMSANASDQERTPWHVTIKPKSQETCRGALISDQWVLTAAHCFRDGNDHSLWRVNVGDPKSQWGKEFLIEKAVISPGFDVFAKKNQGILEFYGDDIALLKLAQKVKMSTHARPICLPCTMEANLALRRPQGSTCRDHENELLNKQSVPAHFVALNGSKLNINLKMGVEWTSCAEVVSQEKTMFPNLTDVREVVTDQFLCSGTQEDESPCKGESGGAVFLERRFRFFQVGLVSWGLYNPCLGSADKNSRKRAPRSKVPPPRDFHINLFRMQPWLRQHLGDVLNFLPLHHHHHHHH

A further experiment deals with T2, human C2 N467A (human, UniProt P06681 21-752).
T2 sequence: T1 sequence with A248N, N447A

A further experiment deals with T3, human C2 M316A (human, UniProt P06681 21-752).
T3 sequence: T1 sequence with A248N, M296A

The target in a further experiment is T4, human C2 K274A (human, UniProt P06681 21-752).
T4 sequence: T1 sequence with A248N, K254A

Substitutions are numbered along the chain they refer to.

B1: RF16-242 (antibody, human IgG4 S228P, lambda, V domains shown)
VH: EVQLLQSGAEVKKPGESLKISCKGSGYSFTSYWIGWVRQMPGKGLEWMGIIYPGDSDTRYSPSFQGQVTISADKSISTAYLQWSSLKASDTAMYYCARRGHYGDYFDYWGQGTLVTVSS
VL: SYELTQPPSVSVSPGQTARITCSGDALPKKYAYWYHQKSGQAPVLVIYEDRRRPSEIPERFSGSSSGTMATLTITGAQVEDEGVYFCYSRDRAGNQRVFGGGTQLTVLG
notes: pH-dependent anti-C2 antibody from a phage display library
In the case of B1, the Kd stood at 14.8 nM with human C2 N268A, 13.4 nM in the experiment with human C2 N467A, 10.1 nM with human C2 M316A and 86.9 nM with human C2 K274A.
